Assay results published in patent US20090304721A1, “TOXIN […] RECEPTOR ANTIBODIES” (priority 2005, published 2009).

Key:
[1] = system: MDA-MB231 tumor; experiment: In vivo efficacy, subcutaneous tumor xenograft; set-up: species or system Athymic nu/nu mice; settings: intraperitoneal, every fourth day, 5 doses; tumor volume by caliper
Method: (§3) Athymic nu/nu (Harlan, Somerville, N.J.) female mice 4-6 weeks of age were injected subcutaneously with 5×10^6 tumor cells. […] Each treatment group consisted of groups of mice ranging in number from 10-12.
(§4) Tumor volume measurements were taken with a caliper routinely (1-2 times/week) starting at the initiation of drug treatment.

[2] = system: PC3 tumor; experiment: In vivo efficacy, subcutaneous tumor xenograft; set-up: species or system Athymic nu/nu mice; settings: intraperitoneal, every fourth day, 5 doses; tumor volume by caliper
Method: as §3, §4

[3] = system: PC3 cells; experiment: Fluorescent visualization of internalization of α-EphA2 antibodies; assay type: cell-based, human; settings: 50 μg/ml Ab, 20 or 60 minutes at 37° C.
Method: FIG. 18. […] PC3 cells were labeled with either human α-EphA2 mAb (G5; panels A and B) or R347 isotype control (panel C). Cell surface attached antibodies were then allowed to internalize by incubating the cells under growth conditions for either zero (non-internalized: panels A and C) or […] (internalized: panel B). All cells were then fixed (4% formaldehyde), permeabilized (0.5% Triton X-100), and stained with AlexaFluor 488-Ab prior to addition of antifade mounting media and fluorescent microscopy examination.
(§1) Cells (PC3, HUVEC, or CT26) were grown for 24-48 hours at 37° C./5% CO2 at a concentration of 2.5-5.0×10^4 cells per 400 μl of appropriate growth media per chamber on Nunc's Tek II 8-chamber slides. […] Cells were then washed 2× with PBS and cell-surface-bound primary Abs were allowed to internalize by covering the cells with growth media and incubation at 37° C./5% CO2 for 0 minutes, 20 minutes (FIGS. 18A-C and 19), or 60 minutes (FIG. 17).
(§2) Subsequent to internalization, cells were fixed (4% paraformaldehyde), permeabilized (0.5% Triton X-100), and labeled with secondary AlexaFluor 488 goat-α-human IgG Ab (Biosource), with 2× cold PBS washing in between steps.
Finally, the cells were covered with […] Mounting Media with DAPI (Vector Labs) and a coverslip prior to examination and photography with fluorescent confocal microscope. […]

[4] = biological target: T1, EphA2 (Homo sapiens, UniProt P29317); experiment: EphA2 receptor activation (phosphorylation, immunoprecipitation/Western); assay type: cell-based; settings: HuVec cells
T1 construct: endogenous in cells; host or cells: HUVEC (human)
Method: Cells were grown overnight at 37° C./5% CO2 at a concentration of 0.5×10^6 cells per 3 ml of appropriate growth media per well in 6-well tissue culture plates. […] The cells were incubated for 15 minutes at 37° C./5% CO2 to activate EphA2 receptor. Subsequent to activation the cells were washed 1× with cold PBS and lysed on ice with 1% Triton X-100 lysis buffer containing Phosphatase Inhibitor Cocktails 1 and 2 (Sigma) and Complete Protease Inhibitor Cocktail Tablets (Roche), added as per manufacturer's recommendation. D7 α-EphA2 mAb and 50 μl of protein A sepharose beads pre-conjugated to rabbit anti-mouse IgG were mixed with lysate at 4° C. overnight to immunoprecipitate the proteins.
Protein lysates were resolved by 10% Bis-Tris NuPAGE Western gel and transferred electrophoretically to nitrocellulose membranes (Invitrogen) following manufacturer's protocol. […] See also Coffman et al., Cancer Res. 63: 7907-7912, 2003.

[5] = system: HuVec cells; experiment: Fluorescent visualization of internalization of α-EphA2 antibodies; assay type: cell-based, human; settings: 50 μg/ml Ab, 20 minutes at 37° C.
Method: as §1, §2
Finally, the cells were covered with […] Mounting Media with DAPI (Vector Labs) and a coverslip prior to examination and photography with fluorescent confocal microscope. Results of the antibody internalization experiments are shown in the fluorescent microscopy pictures of FIGS. 16, 17, 18A, 18B, 18C, and 19 herein. EphA2 was rapidly internalized in these cell lines upon binding the agonistic EphA2 antibodies.

T1 sequence (P29317 24-976): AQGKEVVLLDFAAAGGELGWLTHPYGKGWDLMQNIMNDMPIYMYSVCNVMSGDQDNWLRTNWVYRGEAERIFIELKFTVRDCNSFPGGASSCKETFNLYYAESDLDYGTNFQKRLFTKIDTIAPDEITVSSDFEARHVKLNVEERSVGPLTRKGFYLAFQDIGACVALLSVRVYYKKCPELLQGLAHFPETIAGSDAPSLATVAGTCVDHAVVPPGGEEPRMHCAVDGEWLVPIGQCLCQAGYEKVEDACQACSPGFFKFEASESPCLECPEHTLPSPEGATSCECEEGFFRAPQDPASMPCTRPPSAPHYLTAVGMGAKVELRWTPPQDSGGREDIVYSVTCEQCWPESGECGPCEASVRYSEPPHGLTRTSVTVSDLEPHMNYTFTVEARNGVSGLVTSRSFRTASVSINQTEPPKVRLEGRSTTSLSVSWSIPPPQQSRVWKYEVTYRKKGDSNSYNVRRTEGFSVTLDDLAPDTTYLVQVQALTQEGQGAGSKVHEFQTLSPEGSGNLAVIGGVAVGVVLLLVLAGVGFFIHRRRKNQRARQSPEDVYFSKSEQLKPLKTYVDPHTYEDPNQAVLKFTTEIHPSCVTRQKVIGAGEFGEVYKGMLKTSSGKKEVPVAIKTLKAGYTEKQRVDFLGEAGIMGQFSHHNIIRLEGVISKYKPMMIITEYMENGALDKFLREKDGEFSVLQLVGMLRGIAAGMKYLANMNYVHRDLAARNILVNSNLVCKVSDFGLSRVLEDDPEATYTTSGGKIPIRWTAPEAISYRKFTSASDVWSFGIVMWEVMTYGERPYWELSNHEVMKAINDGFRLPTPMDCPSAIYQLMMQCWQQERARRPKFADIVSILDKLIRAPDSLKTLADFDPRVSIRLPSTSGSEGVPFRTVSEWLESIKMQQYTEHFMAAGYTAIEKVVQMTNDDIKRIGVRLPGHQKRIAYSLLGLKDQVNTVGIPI

B1: G5vcMMAF: anti-EphA2 antibody G5 conjugated to MMAF with the valine-citrulline (vc) linker (conjugate)
VH: QMQLVQSGPEVKKPGTSVKVSCKASGFTFTDYSMNWVRQARGQRLEWIGFIRNKANDYTTEYSASVKGRVTITRDMSTSTAYMELSSLRSEDTAVYYCARYPRYHAMDSWGQGTSVTVSS
VL: DIQMTQSPSSLSASVGDRVTITCRASQSISNNLHWYQQKPGKAPKLLIKYVFQSISGVPSRFSGSGSGTDFTFTISSLQPEDFATYYCQQSNSWPLTFGGGTKVEIKG
modifications: non-natural residues
notes: anti-EphA2 antibody G5 conjugated to MMAF with the valine-citrulline (vc) linker
- MDA-MB231 tumor growth in vivo [1]: specifically inhibited
- PC3 tumor growth in vivo [2]: specifically inhibited

B2: G5: humanized agonistic monoclonal antibody that binds EphA2; VH/VL SEQ ID NO. 103 and 104 (antibody, V domains shown)
VH: B1 VH
VL: B1 VL
modifications: Antibody variable region
- internalization by immunofluorescence [3]: internalization

B3: 3F2vcMMAE: anti-EphA2 antibody 3F2 conjugated to MMAE with a vc linker (conjugate)
VH: EVQLVESGGGVVRPGGSLRLSCAASGFTVSDYSMNWVRQAPGKGLEWIGFIRNKANAYTTEYSASVKGRFTISRDDSKNTLYLQMNSLKTEDTAVYYCTTYPRYHAMDSWGQGTMVTVSS
VL: AIQLTQSPSSLSASVGDRVTITCRASQSISNNLHWYLQKPGQSPQLLIYYGFQSISGVPSRFSGSGSGTDFTLTISSLQPEDFATYYCQQANSWPLTFGGGTKLEIK
modifications: non-natural residues
notes: anti-EphA2 antibody 3F2 conjugated to MMAE with a vc linker
- PC3 tumor growth in vivo [2]: specifically inhibit

B4: 3F2: humanized agonistic monoclonal antibody that binds EphA2; VH/VL SEQ ID NO: 63 and 64 (antibody, V domains shown)
VH: B3 VH
VL: B3 VL
modifications: Antibody Variable Heavy chain; Antibody Variable region
- EphA2 phosphorylation [4]: EphA2 phosphorylation
- internalization by immunofluorescence [5]: Internalization
